Measurements taken from US20160279193A1 (NORWEGIAN UNIVERSITY OF SCIENCE AND TECHNOLOGY, published 2016).

B1: R11 (peptide)
peptide: RRRRRRRRRRR
notes: Cell penetrating peptide part alone, used as a control; also called R11 peptide; R11 (negative control)

Columns and labels:
[1] = biological target: PCNA (endogenous, in human cells and their extracts) (human) (UniProt P12004); test: co-IP with anti-PCNA antibody from formaldehyde-crosslinked HaCaT cell extract, gel, Orbitrap MS
MK2 (human) = MK2 (human) (UniProt P49137); test: mock co-IP with anti-TOM20 antibody from crosslinked HaCaT cell extract, Orbitrap MS
Chain of MK2 (human) (P49137 whole entry): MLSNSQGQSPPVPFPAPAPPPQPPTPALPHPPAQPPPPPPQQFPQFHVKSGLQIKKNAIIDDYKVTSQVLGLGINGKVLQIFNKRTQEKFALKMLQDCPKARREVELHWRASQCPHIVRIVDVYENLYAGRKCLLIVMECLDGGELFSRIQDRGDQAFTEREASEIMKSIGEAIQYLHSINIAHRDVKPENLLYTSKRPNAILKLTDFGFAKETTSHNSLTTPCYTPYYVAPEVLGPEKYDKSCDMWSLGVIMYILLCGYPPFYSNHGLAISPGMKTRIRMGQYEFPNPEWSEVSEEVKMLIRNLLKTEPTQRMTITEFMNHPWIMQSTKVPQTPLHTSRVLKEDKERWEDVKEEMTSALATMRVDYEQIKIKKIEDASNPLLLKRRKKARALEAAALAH

PACT (human) = PACT (human) (UniProt O75569); test: as above
Chain of PACT (human) (O75569 whole entry): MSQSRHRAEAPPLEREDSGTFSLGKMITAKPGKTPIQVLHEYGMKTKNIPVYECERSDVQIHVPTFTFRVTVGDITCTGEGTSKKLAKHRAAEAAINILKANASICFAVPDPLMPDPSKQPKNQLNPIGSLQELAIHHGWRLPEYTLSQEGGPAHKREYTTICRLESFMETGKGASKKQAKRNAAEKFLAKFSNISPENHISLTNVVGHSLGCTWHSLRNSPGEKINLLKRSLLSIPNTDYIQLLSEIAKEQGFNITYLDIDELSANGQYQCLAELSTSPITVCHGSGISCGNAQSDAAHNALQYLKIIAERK

TAO1 (human) = TAO1 (human) (UniProt Q7L7X3); test: as above
Chain of TAO1 (human) (Q7L7X3 whole entry): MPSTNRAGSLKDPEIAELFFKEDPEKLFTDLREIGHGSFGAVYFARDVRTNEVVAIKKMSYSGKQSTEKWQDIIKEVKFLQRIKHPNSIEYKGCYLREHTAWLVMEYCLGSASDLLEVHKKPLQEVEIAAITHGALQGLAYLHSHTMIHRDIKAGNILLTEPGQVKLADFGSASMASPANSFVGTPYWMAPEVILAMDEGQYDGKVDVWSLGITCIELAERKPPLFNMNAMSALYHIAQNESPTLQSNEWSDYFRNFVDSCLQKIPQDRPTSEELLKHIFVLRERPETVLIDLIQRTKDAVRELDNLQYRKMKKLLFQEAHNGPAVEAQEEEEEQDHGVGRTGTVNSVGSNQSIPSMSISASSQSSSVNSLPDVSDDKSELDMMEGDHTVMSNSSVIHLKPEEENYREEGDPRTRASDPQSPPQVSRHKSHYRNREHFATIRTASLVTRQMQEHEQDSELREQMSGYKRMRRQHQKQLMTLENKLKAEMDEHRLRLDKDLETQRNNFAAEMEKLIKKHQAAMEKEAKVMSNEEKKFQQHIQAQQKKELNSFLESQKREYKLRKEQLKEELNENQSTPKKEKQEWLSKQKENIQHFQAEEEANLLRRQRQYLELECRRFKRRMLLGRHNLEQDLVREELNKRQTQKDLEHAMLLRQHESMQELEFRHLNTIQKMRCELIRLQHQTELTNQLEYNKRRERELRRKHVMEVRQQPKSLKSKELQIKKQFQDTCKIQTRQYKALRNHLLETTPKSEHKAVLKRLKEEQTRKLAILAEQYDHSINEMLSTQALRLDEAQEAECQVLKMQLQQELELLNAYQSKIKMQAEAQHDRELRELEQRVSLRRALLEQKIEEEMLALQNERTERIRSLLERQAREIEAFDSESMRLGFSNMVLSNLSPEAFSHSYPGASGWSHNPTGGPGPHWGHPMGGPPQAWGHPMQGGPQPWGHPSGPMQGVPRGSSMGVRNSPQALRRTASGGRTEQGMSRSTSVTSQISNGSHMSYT

[2] = biological target: T1, PCNA labeled with a fluorescent molecule (UniProt P12004 1-261, labeled with a fluorescent molecule (dye and site not stated)); test: microscale thermophoresis, fluorescently labelled PCNA, peptide titrated
T1 construct: also called proliferating cell nuclear antigen
T1 sequence (P12004 whole entry): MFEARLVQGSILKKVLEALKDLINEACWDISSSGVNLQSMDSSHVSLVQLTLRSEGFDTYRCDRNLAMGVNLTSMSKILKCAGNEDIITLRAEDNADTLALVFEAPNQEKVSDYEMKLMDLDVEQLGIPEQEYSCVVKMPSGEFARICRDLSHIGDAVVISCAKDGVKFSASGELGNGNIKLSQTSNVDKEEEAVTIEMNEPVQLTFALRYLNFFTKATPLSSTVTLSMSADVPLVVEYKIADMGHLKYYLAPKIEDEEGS
Method: Microscale thermophoresis (MST) was used to determine the dissociation constant for various APIM containing peptides.
PCNA was labeled with a fluorescent molecule. The concentration of PCNA was kept constant, whereas dilutions of each APIM containing peptide were prepared (1:1).

Chain of PCNA (endogenous, in human cells and their extracts) (human) (P12004 whole entry): as above

Row | Molecule | Mascot score (PCNA pull down) [1] | Sequest score (PCNA pull down) [1] | further results
1 | MK2 (from UniProt P49137 1-400) (enzyme) | 27.6 | 6.33 | 
2 | PACT (from UniProt O75569 1-313) | 23 | 2.06 | 
3 | TAO1 (from UniProt Q7L7X3 1-1001) (enzyme) | 49.8 | 11.1 | 
4 | TOM20 (from UniProt Q15388 1-145) |  |  | Mascot-score (PCNA pull down) [1]: 32.5
5 | mock antibody specific for TOM20 |  |  | Sequest score (mock anti-TOM20 pull down) (MK2 (human)): 1.79; Mascot score (mock anti-TOM20 pull down) (PACT (human)): 25.1; Sequest score (mock anti-TOM20 pull down) (PACT (human)): 1.61; Sequest score (mock anti-TOM20 pull down) (TAO1 (human)): 2.09
6 | B1 |  |  | binding result [2]: no binding
